Experimental data taken from patent publication US20070192906A1.

Molecular target: rice storage protein glutelin B1 (rice) (UniProt P14323)

Substance: pepsin (enzyme)
- degradation by pepsin treatment (Western blot): 90 % degraded
